Reference: the supplement of paper PMC9233669
Variants at the floor of the assay were thinned out.

What was measured:
biotinyl-Phe-oxazolone = assay: self-aminoacylation, catalytic enhancement (BFO) (fold over background); higher = more active; k-Seq, kA / k0A0; sequences stand for … in GGGAAUGGAUCCACAUCUACGAAUUC…UUCACUGCAGACUUGACGAAGCUG
Outline: (§1)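 Catalytic enhancement equals the median kA over the uncatalyzed rate, the latter read from the low-activity peak of a bimodal Gaussian fit. Values of kA came from fitting each sequence's fraction reacted to a pseudo-first-order model, with 1000 bootstraps. Reacted RNA was captured with streptavidin and quantified by triplicate qPCR and Illumina sequencing after 90 minutes at room temperature with 2–1250 μM biotinyl-aminoacyl-oxazolone and 0.43 μM mutagenized RNA pools bearing a 21-nt variable region.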

biotinyl-Ile-oxazolone = assay: self-aminoacylation, catalytic enhancement (BIO) (fold over background); higher = more active; k-Seq, kA / k0A0; sequences stand for … in GGGAAUGGAUCCACAUCUACGAAUUC…UUCACUGCAGACUUGACGAAGCUG
Outline: as §1

biotinyl-Met-oxazolone = assay: self-aminoacylation, catalytic enhancement (BMO) (fold over background); higher = more active; k-Seq, kA / k0A0; sequences stand for … in GGGAAUGGAUCCACAUCUACGAAUUC…UUCACUGCAGACUUGACGAAGCUG
Outline: as §1

biotinyl-Val-oxazolone = assay: self-aminoacylation, catalytic enhancement (BVO) (fold over background); higher = more active; k-Seq, kA / k0A0; sequences stand for … in GGGAAUGGAUCCACAUCUACGAAUUC…UUCACUGCAGACUUGACGAAGCUG
Outline: as §1

biotinyl-Leu-oxazolone = assay: self-aminoacylation, catalytic enhancement (BLO) (fold over background); higher = more active; k-Seq, kA / k0A0; sequences stand for … in GGGAAUGGAUCCACAUCUACGAAUUC…UUCACUGCAGACUUGACGAAGCUG
Outline: as §1

biotinyl-Trp-oxazolone = assay: self-aminoacylation, catalytic enhancement (BWO) (fold over background); higher = more active; k-Seq, kA / k0A0; sequences stand for … in GGGAAUGGAUCCACAUCUACGAAUUC…UUCACUGCAGACUUGACGAAGCUG
Outline: as §1

Sequence	self-aminoacylation (biotinyl-Phe-oxazolone)	self-aminoacylation (biotinyl-Ile-oxazolone)	self-aminoacylation (biotinyl-Met-oxazolone)	self-aminoacylation (biotinyl-Val-oxazolone)	self-aminoacylation (biotinyl-Leu-oxazolone)	self-aminoacylation (biotinyl-Trp-oxazolone)
CUAUUUCAAAGAAUCGGUCUG [Fam1A.1 aminoacylation ribozyme variant]	1.19	0.887	0.93	0.794	0.86	1.12
AUAACCCUGAUCAUCGAGUGA [Fam2.1 aminoacylation ribozyme variant]	20.9	2.79	6.16	3.27	6.46	8.47
CCACGCUUCAAGCAAUCCGUC [Fam1B.1 aminoacylation ribozyme variant]	1.34	0.754	0.507	1.1	0.648	1.07
AAGUUUGCUACUAGUCGCAAG [Fam3.1 aminoacylation ribozyme variant]	1.13	0.824	0.802	0.838	0.766	0.775
CUACUUCAAACAGUCGGUAUG [Fam1A.1 aminoacylation ribozyme variant]	0.447	0.6	0.587	0.552	0.532	0.554
CUCCACUUCAAGCAAUCGGUC [Fam1B.1 aminoacylation ribozyme variant]	50.4	1.37	1.27	1.45	2.07	27.6
AAGUUUGCUAAAAGUCGUAAG [Fam3.1 aminoacylation ribozyme variant]	25.8	1.12	1.28	0.971	0.982	6.5
AUUACCGUGGUCAUCGAGUGA [Fam2.1 aminoacylation ribozyme variant]	35.1	3.39	6.27	3.68	6.4	7.62
AUUCGCCUAGGUCAACGGGUG [Fam2.2 aminoacylation ribozyme variant]	27.8	2.76	4.66	2.72	6.03	3.75
GUUACCCUGGUCACCGAGUGA [Fam2.1 aminoacylation ribozyme variant]	79.2	5.31	11.2	6.95	13.1	14.8
AUUUCCCUGGUUAUCGAGUGA [Fam2.1 aminoacylation ribozyme variant]	58.2	4.12	9.01	4.39	8.65	10.9
AAGAUUGCUAAUAGUCGAAAG [Fam3.1 aminoacylation ribozyme variant]	2.96	1.28	1.03	0.945	0.966	1.34
AUUACCUUGGUCAGCGAGUGA [Fam2.1 aminoacylation ribozyme variant]	21.5	3.26	5.05	3.08	5.38	6.84
AUUACCCUGCUCAUCGAGAGA [Fam2.1 aminoacylation ribozyme variant]	0.77	0.834	0.805	0.975	0.702	0.698
AAGUUUGCUAUUAGUCGCAAG [Fam3.1 aminoacylation ribozyme variant]	1.08	0.848	0.814	0.823	0.76	0.826
CAACUUCAAACAAUCGGCCUG [Fam1A.1 aminoacylation ribozyme variant]	283	3.08	4.11	2.92	6.75	107
CUUACCCUAGUCAUCGAGUGA [Fam2.1 aminoacylation ribozyme variant]	5.25	2.99	4.55	3.24	5.38	6.07
AUUACCCUGGUCAUCGAGGUA [Fam2.1 aminoacylation ribozyme variant]	10.2	2.38	7.24	3.16	5.68	5.45
GAGUUUGCGAAUAGUCGCAAG [Fam3.1 aminoacylation ribozyme variant]	7.65	1.68	1.8	1.56	1.76	2.35
AAGUUUGCUAAUAGUAGCAAU [Fam3.1 aminoacylation ribozyme variant]	1.15	1.32	1.57	1.32	1.11	1.78
CUACUCCAAACCAUCGGUCUG [Fam1A.1 aminoacylation ribozyme variant]	1.16	1.1	0.961	0.971	1.03	1.01
AAGUUUGCUUAAAGUCGCAAG [Fam3.1 aminoacylation ribozyme variant]	1.07	0.972	0.754	0.897	0.896	1.1
AUUACCCUGGCCACCGAGUGA [Fam2.1 aminoacylation ribozyme variant]	35.6	2.92	4.99	3.34	5.59	3.89
CCACACUUCAAGCAAUCGGGG [Fam1B.1 aminoacylation ribozyme variant]	1.38	1.71	1.21	2.19	2.28	2.3
CUACUUCAAACAUUGGGUCUG [Fam1A.1 aminoacylation ribozyme variant]	0.555	0.914	0.944	0.977	0.868	0.716
AUUCAACUAGGUCACCGGGUG [Fam2.2 aminoacylation ribozyme variant]	38.8	4.11	5.89	4.37	6.53	5.05

Sequence	self-aminoacylation (biotinyl-Phe-oxazolone)	self-aminoacylation (biotinyl-Ile-oxazolone)	self-aminoacylation (biotinyl-Met-oxazolone)	self-aminoacylation (biotinyl-Val-oxazolone)	self-aminoacylation (biotinyl-Leu-oxazolone)	self-aminoacylation (biotinyl-Trp-oxazolone)
AUUACCCUGGUCAUGGGGUGA [Fam2.1 aminoacylation ribozyme variant]	66.9	4.02	8.63	4.17	10.1	9.45
AAUCACCUAGGUCAUCGGGUA [Fam2.2 aminoacylation ribozyme variant]	52.7	7.76	12	7.24	14.7	10.5
AAGUUGGCUAAUAGUCGCAAU [Fam3.1 aminoacylation ribozyme variant]	2.72	2.15	1.32	1.7	1.71	2.93
AUUCACCUAGGUCCUCGGGUU [Fam2.2 aminoacylation ribozyme variant]	8.53	1.8	2.22	2.06	2.45	2.48
AUUCACCUAGGUCAUCGCUUG [Fam2.2 aminoacylation ribozyme variant]	4.33	1.18	1.32	1.12	1.26	0.795
AAGUUUGCUAAUAAUCGCAAC [Fam3.1 aminoacylation ribozyme variant]	0.842	0.8	1.06	0.975	0.773	1.18
AUUAACCUGCUCAUCGAGUGA [Fam2.1 aminoacylation ribozyme variant]	2.51	1.55	2.38	1.86	2.5	2.54
AUUACCCUUGGCAUCGAGUGA [Fam2.1 aminoacylation ribozyme variant]	31.7	2.75	6	3.39	6.72	8.88
ACUCACCUAGGUCAUCCGGUG [Fam2.2 aminoacylation ribozyme variant]	39.5	4.6	6.22	5.7	7.63	7.81
CCAUACUUCAAGUAAUCGGUC [Fam1B.1 aminoacylation ribozyme variant]	8.18	0.914	0.825	0.861	1.07	5
GCACACUUCAAGCAUUCGGUC [Fam1B.1 aminoacylation ribozyme variant]	4.96	2.57	2.09	2.59	2.17	3.5
AUUCACCUAGGUGAUCGGCUG [Fam2.2 aminoacylation ribozyme variant]	9.04	1.77	1.74	1.66	1.98	1.67
AAGAUUGCCAAUAGUCGCAAG [Fam3.1 aminoacylation ribozyme variant]	1.69	1.51	1.8	1.81	1.63	1.88
AUACUUCCAACAAUCGGUCUG [Fam1A.1 aminoacylation ribozyme variant]	0.856	0.782	0.705	0.727	0.743	0.721
AUUCACCUAGCUCACCGGGUG [Fam2.2 aminoacylation ribozyme variant]	16.7	2.15	3.66	2.52	2.64	2.11
AUUCUCCUACGUCAUCGGGUG [Fam2.2 aminoacylation ribozyme variant]	57.3	4.89	6.97	5.36	9.67	6.69
AAAUUUGCUAAUAGUCGCAUG [Fam3.1 aminoacylation ribozyme variant]	2.04	2.28	2.13	1.8	2.81	3.67
AUUACCCUGGUCAUUGAGUGC [Fam2.1 aminoacylation ribozyme variant]	1.08	0.962	0.995	0.993	1.15	0.798
AUUAACCUGGUCAUCGAGUUA [Fam2.1 aminoacylation ribozyme variant]	0.827	1	1.34	1.02	1.06	0.836
UAGUUUGCUAAUAGUCGCAGG [Fam3.1 aminoacylation ribozyme variant]	2.23	1.72	1.2	1.34	1.31	2.22
CCACACUUCAACCAAUCGGUC [Fam1B.1 aminoacylation ribozyme variant]	60.5	1.38	1.38	1.5	2.17	35.2
AUUCACUUAGGUCAUCGGCUG [Fam2.2 aminoacylation ribozyme variant]	4.69	1.46	1.47	1.65	1.17	1.45
CUACUUCAAAGAAUCGGUCGG [Fam1A.1 aminoacylation ribozyme variant]	1.37	0.763	0.844	0.795	1.05	1.12
CUUCUUCAAACAAUAGGUCUG [Fam1A.1 aminoacylation ribozyme variant]	0.983	0.883	0.817	0.832	0.825	0.568
AAGUUUGCUAAGAGUGGCAAG [Fam3.1 aminoacylation ribozyme variant]	0.543	0.861	0.955	1.11	0.724	0.872
